Results taken from article PMC8686072.

Target: DCLK1 KD (DCLK1 kinase domain lacking the inhibitory C-terminal tail) (human) (UniProt O15075)
Assay: SPR

Chain of UniProt O15075 (O15075 390-647): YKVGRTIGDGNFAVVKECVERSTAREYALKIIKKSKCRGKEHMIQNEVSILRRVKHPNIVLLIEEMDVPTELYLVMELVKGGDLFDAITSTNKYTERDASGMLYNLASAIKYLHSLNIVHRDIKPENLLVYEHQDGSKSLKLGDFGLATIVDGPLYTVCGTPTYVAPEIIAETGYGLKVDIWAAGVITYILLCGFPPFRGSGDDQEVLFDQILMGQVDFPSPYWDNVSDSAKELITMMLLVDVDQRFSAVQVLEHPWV

Kd: 155 µM
Substance: DCLK1 AID peptide (C-terminal autoinhibitory domain of DCLK1 isoform 2)
